Test results from patent publication US20210009693A1 (MABSPACE BIOSCIENCES SUZHOU, published 2021).
Where two headings read alike, the source gives them in different places.

T1: hPD-L2-Fc (human, UniProt Q9BQ51 20-219)
T1 construct: Acrobiosystems PD2-H5251; also called human PD-L2 protein; not shown: Fc tag
T1 sequence (looked up): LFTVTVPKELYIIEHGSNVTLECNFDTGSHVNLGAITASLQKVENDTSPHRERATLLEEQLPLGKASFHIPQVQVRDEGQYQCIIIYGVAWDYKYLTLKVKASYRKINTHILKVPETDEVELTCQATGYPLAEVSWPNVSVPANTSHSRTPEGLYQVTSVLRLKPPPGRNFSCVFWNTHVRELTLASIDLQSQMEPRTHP


Assays:
[1] = target: T2, Recombinant Mouse PD-L1/CD274 Protein (mPD-L1-his) (mouse, UniProt Q9EP73 19-238); assay: ELISA, 20 ug/ml antibody on coated mouse PD-L1 (his-tagged per text, mPD-L1-Fc per sheet title)
T2 construct: range 19-238; ACRO Biosystem PD1-M5220; also called mouse PD-L1-his
T2 sequence (Q9EP73 other isoform, or with tags, fused parts or gaps limits assumed): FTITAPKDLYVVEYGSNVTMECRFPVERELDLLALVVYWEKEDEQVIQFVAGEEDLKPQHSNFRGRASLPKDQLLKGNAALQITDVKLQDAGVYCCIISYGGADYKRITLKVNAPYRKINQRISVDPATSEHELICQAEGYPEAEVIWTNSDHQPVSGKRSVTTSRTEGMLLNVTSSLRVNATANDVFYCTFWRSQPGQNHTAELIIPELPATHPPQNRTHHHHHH
Procedure: High-binding clear polystyrene 96 well plates (Nunc) were coated with 100 μl/well of 1 μg/ml mouse PD-L1-his in high pH coating buffer and incubated overnight at 4° C. Then plates were washed once on an automatic plate washer using washing buffer (PBS+0.1% Tween 20 (Sigma)). 200 μl of blocking buffer (PBS+1% BSA+1% normal goat serum+0.05% Tween-20) was added to each well and incubated for 2 hours at room temp. Then add 20 μg/ml purified hybridoma mouse antibodies in dilution buffer (PBS+1% BSA+1% normal goat serum+0.01% Tween-20) and incubate for 1 hour at RT. The plates were then washed 3 times with 250 μl/well washing buffer. 100 μl/well of a solution of HRP conjugated goat anti-mouse Fc antibody (Abcam) in dilution buffer was then added to each well of the plate. After that the ELISA plates were allowed to incubate for 60 min at RT then plates were washed 3 times with 250 μl/well washing buffer. Finally, 100 μl/well of TMB was added to each well and the reaction was terminated using 0.64M H₂SO₄. The plates were read on a Thermo Multiscan FC at 450 nM (see FIG. 6F).

[2] = target: T3, human PD-L1 expressed on cells (human, UniProt Q9NZQ7 19-290); assay: FACS, IFN-gamma stimulated HCC827 cells
T3 construct: whole, on cells; also called hPD-L1 expressed on HCC827; hPD-L1 on MC38/hPD-L1 cells
T3 sequence (Q9NZQ7 19-290): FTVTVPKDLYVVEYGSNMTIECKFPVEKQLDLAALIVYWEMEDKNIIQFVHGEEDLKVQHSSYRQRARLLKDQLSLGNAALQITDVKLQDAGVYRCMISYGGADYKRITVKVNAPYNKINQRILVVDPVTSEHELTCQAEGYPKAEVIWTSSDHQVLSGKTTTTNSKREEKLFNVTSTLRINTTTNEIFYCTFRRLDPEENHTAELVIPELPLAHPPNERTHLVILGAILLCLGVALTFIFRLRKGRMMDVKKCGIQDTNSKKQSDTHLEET
Procedure: Log phase IFN-γ stimulated (500U/ml for 2 days) HCC827 cells were collected and resuspended in blocking buffer (5% BSA+PBS). 2×10\hat{ }5 cells were added to each tube and then washed once with PBS (1500 rpm, 5 mins, RT). The 100 μl/tube serial diluted PD-L1 antibodies purified from hybridoma supernatant in blocking buffer were added into corresponding tubes and were incubated at 4° C. for 1 hr. The cells were then washed twice with 1 ml PBS, followed by adding 100 μl/tube of 2nd antibody (1:400 anti-mIgG (H+L)-PE, Cell signaling) in blocking buffer. The cells were incubated at 4° C. for 1 hr and then washed twice with PBS, followed by resuspending cells in 150 μl PBS for each sample. The cells were then transferred into FACS tube and the bindings of the antibodies to the cells were detected using flow cytometry (BD Accuri C6) (see FIG. 5A).

[3] = target: T4, Recombinant Human PD-L1/CD274 Protein (hPD-L1-his) (human, UniProt Q9NZQ7 19-238); assay: ELISA, purified mouse antibody on coated hPD-L1-his
T4 construct: range 19-238; ACRO Biosystem PD1-H5229, made in HEK293; also called human PD-L1-his; hPD-L-his
T4 sequence (Q9NZQ7 other isoform, or with tags, fused parts or gaps limits assumed): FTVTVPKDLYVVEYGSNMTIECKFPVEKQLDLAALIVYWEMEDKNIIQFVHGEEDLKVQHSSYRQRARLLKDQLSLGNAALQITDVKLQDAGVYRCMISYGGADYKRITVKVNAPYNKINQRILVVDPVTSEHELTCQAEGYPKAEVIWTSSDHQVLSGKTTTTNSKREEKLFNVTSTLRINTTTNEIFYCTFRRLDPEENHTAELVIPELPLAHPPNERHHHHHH
Procedure: High-binding clear polystyrene 96 well plates (Nunc) were coated with 100 μl/well of a 0.5 μg/ml hPD-L1-his in high pH coating buffer and incubated overnight 4° C. Then plates were washed once on an automatic plate washer using washing buffer (PBS+0.1% Tween 20 (Sigma)). 200 μl of blocking buffer (PBS+1% BSA+1% normal goat serum+0.05% Tween-20) was added to each well and incubated 2 hours at room temp. Then add serially diluted purified antibodies with dilution buffer (PBS+1% BSA+1% normal goat serum+0.01% Tween-20) and incubate for 1 hour at RT. The plates were then washed 3 times using the method described above. 100 μl/well of a solution of HRP conjugated goat anti-mouse Fc antibody (Abcam) in dilution buffer was then added to each well of the plate. After that the ELISA plates were allowed to incubate for 60 min at RT then plates were washed 3 times with 250 μl/well washing buffer. Finally, 100 μl/well of TMB was added to each well and was terminated using 0.64M H₂SO₄. The plates were read on a Thermo Multiscan FC at 450 nM (see FIG. 3).

[4] = target: T5, human PD-L1-Fc mutant E58A (human); assay: ELISA on captured PD-L1-Fc, as in Example 18A
T5 construct: Position 58 counts on native human PD-L1 (NP_054862.1); also called E58A mutant
T5 sequence (chain, as listed by the source E58A E58A limits assumed): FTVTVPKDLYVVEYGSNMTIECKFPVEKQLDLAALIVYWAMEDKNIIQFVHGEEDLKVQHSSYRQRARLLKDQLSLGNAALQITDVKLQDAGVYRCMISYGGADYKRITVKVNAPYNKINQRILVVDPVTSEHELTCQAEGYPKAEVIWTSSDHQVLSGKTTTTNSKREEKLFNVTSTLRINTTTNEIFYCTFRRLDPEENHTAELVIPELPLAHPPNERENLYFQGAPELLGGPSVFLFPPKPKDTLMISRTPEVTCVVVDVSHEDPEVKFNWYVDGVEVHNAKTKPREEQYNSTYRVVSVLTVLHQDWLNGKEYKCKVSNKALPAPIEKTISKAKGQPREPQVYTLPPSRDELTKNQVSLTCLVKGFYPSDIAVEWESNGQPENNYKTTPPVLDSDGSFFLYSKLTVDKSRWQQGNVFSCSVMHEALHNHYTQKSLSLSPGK

[5] = target: T6, wild type human PD-L1-Fc protein (SEQ ID NO: 107) (human); assay: ELISA on captured PD-L1-Fc, as in Example 18A
T6 construct: Extracellular human PD-L1 (amino acid 19-238) with Fc fragment of human IgG1, expressed in 293T cells and used as culture supernatant; also called WT PD-L1; wild-type PD-L1
T6 sequence (chain, as listed by the source limits assumed): as the sequence (chain, as listed by the source E58A E58A limits assumed) above, with A40E counted along it

[6] = target: T1, hPD-L2-Fc; assay: ELISA, plate coated with hPD-L2-Fc
Procedure: Briefly, high-binding clear polystyrene 96 well plates (Nunc) were coated with 100 μl/well of a 0.5 μg/ml human PD-L1-Fc (Acrobiosystems, Cat #PD1-H5258) or 100 μl/well of a 1 μg/ml hPD-L2-Fc (Acrobiosystems, Cat #PD2-H5251), respectively, in high pH coating buffer (0.16% Na2CO3+0.3% NaHCO₃, pH 9.8) and incubated overnight at 4° C. Then the plates were washed once on an automatic plate washer using washing buffer (PBS+0.1% Tween 20 (Amresco)). 200 μl of blocking buffer (PBS+1% BSA+1% normal goat serum+0.05% Tween-20) was added to each well and incubated for 2 hours at room temp. Then add 100 μl 2 μg/ml purified PD-L1 antibodies with dilution buffer (PBS+1% BSA+1% normal goat serum+0.01% Tween-20) and incubate for 1 hour at RT. The plates were then washed 3 times with washing buffer. 100 μl/well of a solution of HRP conjugated goat anti-mouse IgG antibody (1:20000, Abcam) in dilution buffer was then added to each well of the plate. After that the ELISA plates were allowed to incubate for 60 min at RT then the plates were washed 3 times with 250 μl/well washing buffer. Finally, 100 μl/well of TMB was added to each well for 15 min and the reaction was terminated using 50 ul/well of 0.16 M/L sulfuric acid. The plates were read on a Thermo Multiscan FC at 450 nM (see FIG. 6G).

[7] = target: T3, human PD-L1 expressed on cells; assay: FACS, IFN-gamma stimulated HCC827 cells; remark: listed apart in the source
Procedure: Log phase IFN-γ stimulated (500U/ml for 2 days) HCC827 cells were collected and resuspended in blocking buffer (5% BSA+PBS). 2×10\hat{ }5 cells were added to each tube and then washed once with PBS (1500 rpm, 5 mins, RT). The 100 μl/tube serial diluted biotinylated PD-L1 antibodies with blocking buffer were added into corresponding tubes and incubate at 4° C. for 1 hr.

[8] = target: T7, Human PD-L1/CD274 with C-Fc Tag (hPD-L1-Fc) (human, UniProt Q9NZQ7 19-238); assay: blocking ELISA on coated hPD-L1-Fc; blocked ligand: biotinylated hPD-1-N297A
T7 construct: range 19-238; ACRO Biosystem PD1-H5258, made in HEK293; also called human PD-L1-Fc; not shown: Fc fragment of human IgG1 at C-terminus
T7 sequence (Q9NZQ7 19-238 limits assumed): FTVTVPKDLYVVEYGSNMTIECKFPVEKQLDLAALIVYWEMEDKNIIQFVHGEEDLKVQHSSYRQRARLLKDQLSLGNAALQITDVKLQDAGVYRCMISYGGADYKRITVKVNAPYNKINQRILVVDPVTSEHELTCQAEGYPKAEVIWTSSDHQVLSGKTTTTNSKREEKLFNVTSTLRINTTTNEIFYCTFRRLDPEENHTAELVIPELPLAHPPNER
Procedure: High-binding clear polystyrene 96 well plates (Nunc) were coated with 100 μl/well of coating solution consisting of 1 μg/ml hPD-L1-Fc overnight at 4° C. Then the plates were washed once on an automatic plate washer using washing buffer (PBS+0.1% Tween 20 (Sigma)). 200 μl of blocking buffer (PBS+1% BSA+1% normal goat serum+0.05% Tween-20) was added to each well and incubated 2 hours at room temp. […] The plates were then washed 3 times using the method described above. […] After the plates were washed 3 times, 100 μl/well of a solution of 1:5000 diluted HRP conjugated Neutravidin antibody (Pierce) in dilution buffer was then added to each well of the plate. After that the ELISA plates were allowed to incubate for 60 min at RT, then the plates were washed 3 times with 250 μl/well washing buffer. Finally, 100 μl/well of TMB was added to each well and the reaction was terminated using 0.64M H₂SO₄. The plates were read on a Thermo Multiscan FC at 450 nM (see FIG. 18A to 18D).

[9] = target: T3, human PD-L1 expressed on cells; assay: blocking FACS on HCC827 cells; blocked ligand: biotinylated hPD-1-N297A
Procedure: Log phase IFN-γ stimulated (500U/ml for 2 days) HCC827 cells were collected and resuspended in blocking buffer (5% BSA+PBS). 2×10\hat{ }5 cells were added to each tube and then washed once with PBS (1500 rpm, 5 mins, RT). The 100 μl/tube serial diluted PD-L1 antibodies (see FIG. 8) with blocking buffer were added into corresponding tubes and incubate at 4° C. for 1 hr. […] After washing for three times with PBS, 100 μl/tube streptavidin-PE 1:200 (EBiosciences) in blocking buffer was added to each tube. The cells were incubated at 4° C. for 1 hr and then washed twice with PBS, followed by resuspending cells in 150 μl PBS for each sample. The cells were then transferred into FACS tube and the binding of the antibodies to the cells were detected with flow cytometry (ACEA Bioscience Novocyte).

[10] = target: hPD-L1 (antigen of the Biacore assay) (human, UniProt Q9NZQ7 19-238, limits assumed); assay: SPR (Biacore), antibody captured on anti-human Fc, antigen in flow
hPD-L1 (antigen of the Biacore assay), sequence (Q9NZQ7 19-238 limits assumed): as above
Procedure: A CM5 sensor chip was activated in each flow cell by 7-min injection (10 μl/min) of freshly prepared 1:1 50 mM N-hydroxysuccinimide (NHS): 200 mM 1-ethyl-3-(3-dimethylaminopropyl)-carbodiimide (EDC). Then anti-human Fc antibody (GE Healthcare) in a concentration of 10 μg/ml in 10 mM sodium acetate buffer PH 5.0 was injected onto the activated chip at 10 μl/min (HBS-EP running buffer: 10 mM HEPES, 150 mM NaCl, 3.4 mM EDTA, 0.005% surfactant P20, pH 7.4). The remaining active coupling sites were blocked by 7 min injection of 1M ethanolamine at 10 μl/min. The immobilization level of each flow cell is ˜9000RU. Antibodies were captured in FC2 by anti-human Fe IgG (GE Healthcare) to 200˜300RU. FC1 was used as the reference cell. Antigen was injected at varying concentrations after capture of antibody. The association time for antibody binding antigen is 180s. Surface Regeneration condition is 120s at 10 μl/min in Gly pH1.5. The signals with captured antibody subtracted from those without captured antibody were calculated with Biacore X100 evaluation software ver. 2.0 (Biacore).

Row | binding result [1] | EC50 (read off the curve) [2] [µg/mL] | EC50 (read off the curve) [3] [µg/mL] | % of binding of Ab to E58A mutant vs. that to WT PD-L1 [4] [%] | Mean OD450 [4] [OD450] | OD450 nM of sample-1 [4] [OD450] | OD450 nM of sample-2 [4] [OD450] | Mean OD450 [5] [OD450] | OD450 nM of sample-1 [5] [OD450] | OD450 nM of sample-2 [5] [OD450] | binding result [6] | EC50 (read off the curve) [7] [µg/mL] | IC50 (read off the curve) [8] [µg/mL] | IC50 (read off the curve) [9] [µg/mL] | Kd [10] [nM] | koff [10] [s⁻¹] | kon [10] [M⁻¹ s⁻¹] | Binder
1 | no binding (tested: 20 ug/ml) | ~0.04 | ~0.01 | 69.6 | 1.04 | 1.06 | 1.01 | 1.49 | 1.43 | 1.54 | no binding (tested: 2 ug/ml) |  |  |  |  |  |  | 4B6 (antibody, V domains shown, Mouse monoclonal purified from hybridoma; also called mouse monoclonal antibody 4B6) VH: EVQLQQSGPELVKPGASVKISCKASGYVFTDYYMNWVKQSHGKSLEWIGDINPNNGGTSYNHKFKGKATVTVDKSSRTAYMELLSLTSEDSAVYYCVKWGDGPFAYWGQGTLVTVSA VL: DIVMTQSQKFMSTSVGDRVSITCKASQNVGAAVAWYQQKPGQSPKLLIYSASNRYTGVPDRFTGSGSGTDFTLTISNMQSEDLADYFCQQYSNYPTFGSGTKLGIK
2 |  |  |  |  |  |  |  |  |  |  |  | ~0.1 | ~0.06 | ~0.1 | 6.36 | 0.000927 | 150000 | 4B6-H3L3 (antibody, V domains shown, Humanized; also called humanized 4B6 H3L3) VH: QVQLVQSGAEVVKPGASVKISCKASGYVFTDYYMNWVKQAPGQGLEWIGDINPNNGGTSYNQKFQGRATVTVDKSTRTAYMELSRLRSDDTAVYYCVKWGDGPFAYWGQGTLVTVSS VL: DIQMTQSQSSLSASVGDRVTITCQASQNVGAAVAWYQQKPGKAPKLLIYSASNRYTGVPSRFSGSGSGTDFTLTISSMQPEDIATYFCQQYSNYPTFGSGTKLGIK
3 | no binding (tested: 20 ug/ml) | ~0.07 | ~0.006 | 9.9 | 0.338 | 0.383 | 0.292 | 1.71 | 1.65 | 1.76 | no binding (tested: 2 ug/ml) |  |  |  |  |  |  | 23F11 (antibody, V domains shown, also called mouse monoclonal antibody 23F11; clone 23F11) VH: QVQLQQPGAELVKPGASVKLSCKASGYSFTTYWMHWVKQRPGQGLEWIGMIQPNSGGTKYNEKFKKKATLTVDKSSTTASMELSSLTSEDSAVYYCARGAGTVDYFDYWGQGSTLTVSS VL: DIVLTHSPVSLAVSLGQRATISCRASESVDIYGNSFMHWYQQKPGQPPKLLIYRASNLESGIPARFSGSGSRTDFTLTINPVEADDVATYYCQQSTEDPYTFGGGTKLEIK
